According to PMC12069617 (Nature Communications, 2024):
Values belong to the binder of their own block, whether it stands above or below them.

Columns and labels:
SEC-MALS = biological target: the molecule itself; assay: SEC-MALS
[1] = biological target: histone acetyltransferase p300, full-length, Strep II-tagged (human, UniProt Q09472 1-2414); assay: cross-linking
Sequence of histone acetyltransferase p300, full-length, Strep II-tagged (Q09472 whole entry): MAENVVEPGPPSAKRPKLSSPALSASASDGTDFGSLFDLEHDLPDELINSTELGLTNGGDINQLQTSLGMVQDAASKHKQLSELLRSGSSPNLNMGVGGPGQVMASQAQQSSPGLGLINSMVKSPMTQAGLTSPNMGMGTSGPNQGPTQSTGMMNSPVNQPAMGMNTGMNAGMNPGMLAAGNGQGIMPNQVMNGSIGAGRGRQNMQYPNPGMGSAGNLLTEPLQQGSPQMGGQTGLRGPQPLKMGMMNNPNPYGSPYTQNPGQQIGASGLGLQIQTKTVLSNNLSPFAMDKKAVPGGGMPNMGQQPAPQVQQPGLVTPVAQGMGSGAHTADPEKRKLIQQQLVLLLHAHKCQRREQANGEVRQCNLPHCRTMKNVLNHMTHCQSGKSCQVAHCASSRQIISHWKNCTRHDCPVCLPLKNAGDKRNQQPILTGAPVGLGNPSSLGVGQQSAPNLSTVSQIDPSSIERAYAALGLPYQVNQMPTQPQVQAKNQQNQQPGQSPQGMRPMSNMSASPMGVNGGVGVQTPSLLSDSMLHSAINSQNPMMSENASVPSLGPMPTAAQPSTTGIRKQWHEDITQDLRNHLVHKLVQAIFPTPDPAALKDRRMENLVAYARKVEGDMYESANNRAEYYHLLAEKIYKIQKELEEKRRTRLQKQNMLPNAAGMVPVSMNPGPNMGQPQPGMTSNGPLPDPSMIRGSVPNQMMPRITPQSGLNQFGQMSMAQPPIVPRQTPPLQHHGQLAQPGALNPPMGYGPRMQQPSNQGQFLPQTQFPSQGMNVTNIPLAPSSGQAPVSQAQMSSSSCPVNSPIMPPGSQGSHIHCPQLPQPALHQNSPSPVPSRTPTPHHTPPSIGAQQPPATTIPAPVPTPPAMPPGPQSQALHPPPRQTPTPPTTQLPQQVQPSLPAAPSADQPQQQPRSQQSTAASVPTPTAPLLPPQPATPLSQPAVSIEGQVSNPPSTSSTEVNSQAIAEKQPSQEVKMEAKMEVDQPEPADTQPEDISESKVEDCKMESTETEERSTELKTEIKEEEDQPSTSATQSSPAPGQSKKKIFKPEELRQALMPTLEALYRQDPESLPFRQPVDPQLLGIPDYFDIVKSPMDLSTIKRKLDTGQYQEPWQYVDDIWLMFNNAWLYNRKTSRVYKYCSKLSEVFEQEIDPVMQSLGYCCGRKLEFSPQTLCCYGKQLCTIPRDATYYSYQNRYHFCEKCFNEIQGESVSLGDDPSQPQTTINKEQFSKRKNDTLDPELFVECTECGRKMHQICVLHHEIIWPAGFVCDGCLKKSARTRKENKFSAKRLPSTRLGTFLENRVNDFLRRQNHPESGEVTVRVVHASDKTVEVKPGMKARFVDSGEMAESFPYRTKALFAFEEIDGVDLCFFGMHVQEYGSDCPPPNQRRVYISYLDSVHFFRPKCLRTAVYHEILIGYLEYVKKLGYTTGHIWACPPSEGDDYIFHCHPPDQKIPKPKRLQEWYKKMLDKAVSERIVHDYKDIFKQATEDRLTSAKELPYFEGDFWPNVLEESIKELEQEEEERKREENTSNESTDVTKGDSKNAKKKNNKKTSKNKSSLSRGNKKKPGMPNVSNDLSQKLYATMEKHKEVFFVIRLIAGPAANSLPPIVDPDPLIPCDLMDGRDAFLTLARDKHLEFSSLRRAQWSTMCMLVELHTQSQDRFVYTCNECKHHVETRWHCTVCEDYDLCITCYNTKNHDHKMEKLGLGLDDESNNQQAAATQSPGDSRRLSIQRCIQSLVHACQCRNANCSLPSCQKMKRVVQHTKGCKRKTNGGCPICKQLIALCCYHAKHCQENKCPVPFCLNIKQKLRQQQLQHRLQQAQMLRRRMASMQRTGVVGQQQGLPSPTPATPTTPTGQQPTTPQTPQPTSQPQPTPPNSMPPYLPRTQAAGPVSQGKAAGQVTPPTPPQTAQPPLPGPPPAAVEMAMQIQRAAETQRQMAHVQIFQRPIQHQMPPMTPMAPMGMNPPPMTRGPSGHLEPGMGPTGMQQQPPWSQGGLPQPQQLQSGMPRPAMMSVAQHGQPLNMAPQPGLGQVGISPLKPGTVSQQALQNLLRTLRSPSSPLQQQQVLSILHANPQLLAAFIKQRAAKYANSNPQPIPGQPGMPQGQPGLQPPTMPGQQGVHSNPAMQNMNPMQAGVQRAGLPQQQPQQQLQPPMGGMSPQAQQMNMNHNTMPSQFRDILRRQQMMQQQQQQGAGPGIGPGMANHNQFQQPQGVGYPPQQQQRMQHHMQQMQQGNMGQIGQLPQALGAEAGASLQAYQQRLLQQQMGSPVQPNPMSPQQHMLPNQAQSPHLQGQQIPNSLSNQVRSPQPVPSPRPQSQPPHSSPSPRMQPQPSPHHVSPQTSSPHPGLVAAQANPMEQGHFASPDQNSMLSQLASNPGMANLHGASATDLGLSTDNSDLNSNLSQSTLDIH

binding result [1]: binds
B1: progesterone receptor isoform B (PR-B), full-length, Strep II-tagged (receptor)
chain: MTELKAKGPRAPHVAGGPPSPEVGSPLLCRPAAGPFPGSQTSDTLPEVSAIPISLDGLLFPRPCQGQDPSDEKTQDQQSLSDVEGAYSRAEATRGAGGSSSSPPEKDSGLLDSVLDTLLAPSGPGQSQPSPPACEVTSSWCLFGPELPEDPPAAPATQRVLSPLMSRSGCKVGDSSGTAAAHKVLPRGLSPARQLLLPASESPHWSGAPVKPSPQAAAVEVEEEDGSESEESAGPLLKGKPRALGGAAAGGGAAAVPPGAAAGGVALVPKEDSRFSAPRVALVEQDAPMAPGRSPLATTVMDFIHVPILPLNHALLAARTRQLLEDESYDGGAGAASAFAPPRSSPCASSTPVAVGDFPDCAYPPDAEPKDDAYPLYSDFQPPALKIKEEEEGAEASARSPRSYLVAGANPAAFPDFPLGPPPPLPPRATPSRPGEAAVTAAPASASVSSASSSGSTLECILYKAEGAPPQQGPFAPPPCKAPGASGCLLPRDGLPSTSASAAAAGAAPALYPALGLNGLPQLGYQAAVLKEGLPQVYPPYLNYLRPDSEASQSPQYSFESLPQKICLICGDEASGCHYGVLTCGSCKVFFKRAMEGQHNYLCAGRNDCIVDKIRRKNCPACRLRKCCQAGMVLGGRKFKKFNKVRVVRALDAVALPQPVGVPNESQALSQRFTFSPGQDIQLIPPLINLLMSIEPDVIYAGHDNTKPDTSSSLLTSLNQLGERQLLSVVKWSKSLPGFRNLHIDDQITLIQYSWMSLMVFGLGWRSYKHVSGQMLYFAPDLILNEQRMKESSFYSLCLTMWQIPQEFVKLQVSQEEFLCMKVLLLLNTIPLEGLRSQTQFEEMRSSYIRELIKAIGLRQKGVVSSSQRFYQLTKLLDNLHDLVKQLHLYCLNTFIQSRALSVEFPEMMSEVIAAQLPKILAGMVKPLLFHKK
modifications: phosphorylated on multiple serine residues (sites not given)
stoichiometry N (SEC-MALS): 2

binding result [1]: binds
B2: progesterone receptor isoform A (PR-A), full-length, Strep II-tagged (receptor)
chain: MSRSGCKVGDSSGTAAAHKVLPRGLSPARQLLLPASESPHWSGAPVKPSPQAAAVEVEEEDGSESEESAGPLLKGKPRALGGAAAGGGAAAVPPGAAAGGVALVPKEDSRFSAPRVALVEQDAPMAPGRSPLATTVMDFIHVPILPLNHALLAARTRQLLEDESYDGGAGAASAFAPPRSSPCASSTPVAVGDFPDCAYPPDAEPKDDAYPLYSDFQPPALKIKEEEEGAEASARSPRSYLVAGANPAAFPDFPLGPPPPLPPRATPSRPGEAAVTAAPASASVSSASSSGSTLECILYKAEGAPPQQGPFAPPPCKAPGASGCLLPRDGLPSTSASAAAAGAAPALYPALGLNGLPQLGYQAAVLKEGLPQVYPPYLNYLRPDSEASQSPQYSFESLPQKICLICGDEASGCHYGVLTCGSCKVFFKRAMEGQHNYLCAGRNDCIVDKIRRKNCPACRLRKCCQAGMVLGGRKFKKFNKVRVVRALDAVALPQPVGVPNESQALSQRFTFSPGQDIQLIPPLINLLMSIEPDVIYAGHDNTKPDTSSSLLTSLNQLGERQLLSVVKWSKSLPGFRNLHIDDQITLIQYSWMSLMVFGLGWRSYKHVSGQMLYFAPDLILNEQRMKESSFYSLCLTMWQIPQEFVKLQVSQEEFLCMKVLLLLNTIPLEGLRSQTQFEEMRSSYIRELIKAIGLRQKGVVSSSQRFYQLTKLLDNLHDLVKQLHLYCLNTFIQSRALSVEFPEMMSEVIAAQLPKILAGMVKPLLFHKK
modifications: phosphorylated on multiple serine residues (sites not given)
